Experimental data published in patent US20210230238A1 (DEUTSCHES KREBSFORSCHUNGSZENTRUM STIFTUNG DES FFENTLICHEN …, published 2021).

Columns and labels:
Assay in all cases: SPR, Dectin-1 immobilized, 1:1 model
[1] = biological target: T1, murine annexin A1 (murine, UniProt P10107 2-346)
T1 construct: Recombinant protein; also called mAnxA1
T1 sequence: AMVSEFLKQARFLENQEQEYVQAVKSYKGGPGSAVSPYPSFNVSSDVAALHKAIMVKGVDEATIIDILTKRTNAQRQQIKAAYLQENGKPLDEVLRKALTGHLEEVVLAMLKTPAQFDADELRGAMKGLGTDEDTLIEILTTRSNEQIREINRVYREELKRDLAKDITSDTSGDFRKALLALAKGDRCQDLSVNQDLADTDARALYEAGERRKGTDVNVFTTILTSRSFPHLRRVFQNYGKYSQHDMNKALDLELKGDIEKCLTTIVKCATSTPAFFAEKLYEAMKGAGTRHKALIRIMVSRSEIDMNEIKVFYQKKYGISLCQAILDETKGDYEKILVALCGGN

[2] = biological target: T2, murine annexin A13 (murine, UniProt Q99JG3 2-317)
T2 construct: Recombinant protein; also called mAnxA13
T2 sequence: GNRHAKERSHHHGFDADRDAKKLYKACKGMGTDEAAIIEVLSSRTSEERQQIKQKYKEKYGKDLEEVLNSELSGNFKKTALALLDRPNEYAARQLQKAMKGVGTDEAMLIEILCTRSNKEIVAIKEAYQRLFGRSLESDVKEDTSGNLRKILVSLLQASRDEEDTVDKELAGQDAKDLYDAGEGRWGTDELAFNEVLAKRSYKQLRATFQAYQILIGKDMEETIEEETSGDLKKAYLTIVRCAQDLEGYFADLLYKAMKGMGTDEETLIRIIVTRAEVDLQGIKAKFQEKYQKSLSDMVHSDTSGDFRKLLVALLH

[3] = biological target: T3, murine annexin A1 core domain (murine, UniProt P10107 41-344)
T3 construct: Recombinant core domain; also called mAnxA1 core; core annexin A1 domain
T3 sequence: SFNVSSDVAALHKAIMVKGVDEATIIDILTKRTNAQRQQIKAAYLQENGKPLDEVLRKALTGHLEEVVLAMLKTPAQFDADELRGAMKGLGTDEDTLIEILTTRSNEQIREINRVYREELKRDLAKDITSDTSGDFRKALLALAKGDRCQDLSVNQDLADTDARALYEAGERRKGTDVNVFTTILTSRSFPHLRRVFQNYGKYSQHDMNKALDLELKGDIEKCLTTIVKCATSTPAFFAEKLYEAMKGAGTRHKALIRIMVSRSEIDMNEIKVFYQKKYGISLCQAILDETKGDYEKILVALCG

[4] = biological target: T4, murine annexin A5 (murine, UniProt P48036 2-319)
T4 construct: Recombinant protein; also called mAnxA5
T4 sequence: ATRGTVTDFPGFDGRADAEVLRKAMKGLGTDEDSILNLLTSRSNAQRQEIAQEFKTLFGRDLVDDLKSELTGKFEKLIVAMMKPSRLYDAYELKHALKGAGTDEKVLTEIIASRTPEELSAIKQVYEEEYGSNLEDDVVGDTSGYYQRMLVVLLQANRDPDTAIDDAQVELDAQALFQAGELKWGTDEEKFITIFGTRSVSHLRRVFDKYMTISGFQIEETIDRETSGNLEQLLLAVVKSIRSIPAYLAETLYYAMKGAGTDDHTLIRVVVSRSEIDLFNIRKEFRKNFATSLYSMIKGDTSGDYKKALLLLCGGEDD

Measured: Kd

B1: Dectin-1 (receptor)
chain: GHNSGRNPEEKDNFLSRNKENHKPTESSLDEKVAPSKASQTTGGFSQPCLPNWIMHGKSCYLFSFSGNSWYGSKRHCSQLGAHLLKIDNSKEFEFIESQTSSHRINAFWIGLSRNQSEGPWFWEDGSAFFPNSFQVRNTAPQESLLHNCVWIHGSEVYNQICNTSSYSICEKEL
~100 nM: [1] | [2] | [3] | [4]
